This is an account of results in patent US20190338002A1 (Pieris, published 2019).

Changes are numbered by the printed parent chain.

Test [1] has as its target T1, rat beta CGRP (SEQ ID NO: 83) (rat, not fully specified).
T1 construct: also called rat βCGRP; rat β-CGRP
T1 peptide: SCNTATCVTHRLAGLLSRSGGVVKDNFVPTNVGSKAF
The test can be described thus: SPR, 37 C, mutein captured, CGRP analyte. The essentials: (§1)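 Biotinylated lipocalin muteins were captured on streptavidin-oligo CAP chip, and CGRP was injected at 30, 3 and 0.3 nM or at a single 25 nM at 37 °C (180 s association, 5400 s dissociation) in HBS-EP+. Double-referenced sensorgrams were globally fit to a 1:1 model for ka and kd.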
(In SPR one partner is held on a chip, and binding of the other changes the refractive index at the surface.)

For test [2], the target named is T2, human alpha CGRP (SEQ ID NO: 80) (human, not fully specified).
T2 construct: also called human αCGRP; hαCGRP
T2 peptide: T1 peptide with S1A, N3D, D25N
As to the kind of experiment: SPR, 37 C, mutein captured, CGRP analyte. Put shortly: as §1

For test [3], the target named is T3, rat alpha CGRP (SEQ ID NO: 82) (rat).
T3 construct: also called rat αCGRP; rat α-CGRP
T3 peptide: T1 peptide with K35E
The test can be described thus: SPR, 37 C, mutein captured, CGRP analyte. Put shortly: as §1

The target of test [4] is T4, human beta CGRP (SEQ ID NO: 81) (human, not fully specified).
T4 construct: also called human βCGRP; hβCGRP
T4 peptide: T1 peptide with S1A, V22M, D25S
As to the kind of experiment: SPR, 37 C, mutein captured, CGRP analyte. The essentials:
as §1

Test [5] has as its target T1, rat beta CGRP (SEQ ID NO: 83). The test can be described thus: competition ELISA in solution; free mutein detected on plate-bound biotinylated CGRP. The method, then:
(§2) Binding of lipocalin muteins to alpha and beta CGRP from human and rat in solution was tested in vitro using a competition ELISA assay format (FIG. 1). In this experiment, a constant concentration of non-biotinylated CGRP (0.5 μM) was incubated for 1 h with variable concentrations of lipocalin muteins SEQ ID NO: 2, SEQ ID NO: 3, SEQ ID NO: 4; SEQ ID NO: 5, and SEQ ID NO: 6. After this pre-incubation in solution, an aliquot of the lipocalin mutein/CGRP mixture was transferred to an ELISA plate coated with Neutravidin-captured human alpha CGRP-bio to measure the concentration of lipocalin muteins that was not blocked by non-biotinylated human alpha CGRP (SEQ ID NO: 80) and therefore could still be bound by the immobilized human alpha CGRP-bio (FIG. 1). This procedure was performed on another relevant CGRP species (human beta CGRP (SEQ ID NO: 81), rat alpha CGRP (SEQ ID NO: 82), rat beta CGRP (SEQ ID NO: 83)). All incubation steps were performed with shaking at 300 rpm, and the plate was washed after each incubation step with 80 μL PBS-T buffer (PBS, 0.05% Tween 20) for five times using a Biotek ELx405 select CW washer. In the first step, a 384-well ELISA plate was coated with 20 μL of Neutravidin at a concentration of 5 μg/mL in PBS over night at 4° C. After washing, the plate was blocked with 60 μL PBS-T/BSA (2% BSA in PBS containing 0.05% Tween 20) for 1 h at room temperature.
(§3) To allow for detection and quantification of plate-bound lipocalin muteins, the residual supernatants were discarded and 20 μL HRP-labeled anti-hNGAL antibody was added at a predetermined optimal concentration in PBS-T/BSA and incubated for 1 h at RT. The anti-hNGAL antibody had been obtained by immunization of rabbits with a mixture of muteins, and was subsequently coupled to HRP using a kit (EZ-link Plus Activated Peroxidase, Thermo Scientific) according to the manufacturer's instructions, to obtain the antibody-HRP conjugate. After washing, 20 μl fluorogenic HRP substrate (QuantaBlu, Thermo) was added to each well, and the reaction was allowed to proceed for 15 to 60 minutes. The fluorescence intensity of every well on the plate was read using a fluorescence microplate reader (Tecan or Molecular Devices). To evaluate the data, free mutein concentration, c(mutein)free, was calculated based on the standard curve results, and plotted versus ligand concentration, c(Ligand).
(In an ELISA, binding on a coated surface is turned into a signal by an enzyme label.)

The target of test [6] is T2, human alpha CGRP (SEQ ID NO: 80). The test is described as above. The method, then: as §2, §3
Test [7] addresses T3, rat alpha CGRP (SEQ ID NO: 82). The description is as above. As to the method: as §2, §3
Test [8] deals with T4, human beta CGRP (SEQ ID NO: 81). The description is as above. As to the method: as §2, §3
For test [9] the target is unchanged. The test can be described thus: SPR Biacore 37 °C, protein captured as ligand, hb CGRP (1-37) injected, 1:1 fit of a flat sensorgram; run 130208_NAN-DS-047 [contd]. As to the method:
(§4) The Biotin CAPture Kit (GE Healthcare) was used to immobilize biotinylated lipocalin muteins to a chip surface. Muteins were biotinylated using standard NHS chemistry. Undiluted Biotin CAPture Reagent (streptavidin conjugated with ss-DNA oligo) was captured on a Sensor Chip CAP with the pre-immobilized complementary ss-DNA oligo. Thereafter, biotinylated muteins at 1 μg/mL were applied for 300 s at a flow rate of 5 μL/min.
(§5) CGRP species were applied in three concentrations of 30 nM, 3 nM and 0.3 nM at a flow rate of 30 μL/min or in a single concentration of 25 nM per cycle as shown in FIG. 2. The dilutions were injected with association times of 180 s and dissociation times of 5400 sec to obtain ka and kd information. Regeneration of the chip surface was achieved by injecting 6 M Guanidinium-HCl+0.25 M NaOH (120 s) with a flow rate of 10 μL/min. […]
(§6) The data were double-referenced by subtraction of the corresponding signals measured for the control channel (loaded with Biotin CAPture reagent only) and by subtraction of buffer injections from the binding responses. Association rate constant ka and dissociation rate constant kd for the binding reaction were determined using Biacore T200 Evaluation Software V2.0 for data processing and kinetic fitting. […]

Test [10] has as its target T2, human alpha CGRP (SEQ ID NO: 80). As to the kind of experiment: SPR Biacore 37 °C, protein captured as ligand, ha CGRP (1-37) injected, 1:1 fit of a flat sensorgram; run 130301_NAN-DS-049. As to the method: as §4, §5, §6
Test [11] concerns the target T1, rat beta CGRP (SEQ ID NO: 83). As to the kind of experiment: SPR Biacore 37 °C, protein captured as ligand, rb CGRP (1-37) injected, 1:1 fit of a flat sensorgram; run 130301_NAN-DS-049. The method, then: as §4, §5, §6
Test [12] deals with T2, human alpha CGRP (SEQ ID NO: 80). The test can be described thus: SPR Biacore 37 °C, protein captured as ligand, ha CGRP (1-37) injected, 1:1 fit of a flat sensorgram; run 130208_NAN-DS-047 [contd]. As to the method:
as §4, §5, §6

Test [13] deals with T3, rat alpha CGRP (SEQ ID NO: 82). The test can be described thus: SPR Biacore 37 °C, protein captured as ligand, ra CGRP (1-37) injected, 1:1 fit of a flat sensorgram; run 130208_NAN-DS-047 [contd]. The method, then:
as §4, §5, §6

Test [14] addresses T4, human beta CGRP (SEQ ID NO: 81). As to the kind of experiment: SPR Biacore 37 °C, protein captured as ligand, hb CGRP (1-37) injected, 1:1 fit of a flat sensorgram; run 130301_NAN-DS-049. The method, then:
as §4, §5, §6

The target in test [15] is T1, rat beta CGRP (SEQ ID NO: 83). As to the kind of experiment: SPR Biacore 37 °C, protein captured as ligand, rb CGRP (1-37) injected, 1:1 fit of a flat sensorgram; run 130208_NAN-DS-047 [contd]. As to the method:
as §4, §5, §6

The target in test [16] is T3, rat alpha CGRP (SEQ ID NO: 82). As to the kind of experiment: SPR Biacore 37 °C, protein captured as ligand, ra CGRP (1-37) injected, 1:1 fit of a flat sensorgram; run 130301_NAN-DS-049. The method, then:
as §4, §5, §6

B1: lipocalin mutein SEQ ID NO: 4 (designed binder)
chain: QDSTSDLIPAPPLSKVPLQQNFQDNQFHGKWYVVGWAGNTLLREDKDPTKMQATIYELKEDKSYNVTWVYFSEKKCNYHIETFVPGSQPGEFTLGTIKSYPGETSILVRVVSTNYNQHAMVFFKGVSQNREIFEITLYGRTKELTSELKENFIRFSKSLGLPENHIVFPVPIDQCIDGSAWSHPQFEK
notes: biotinylated by NHS chemistry for capture in SPR
As to B1, the Kd turned out to be 2.19 nM in [1], 1.82 nM in [2], 5 nM in test [3] and 0.753 nM in test [4]. Moreover, the dissociation rate constant (koff) in test [1] worked out at 0.00365 s⁻¹; in test [2], 0.00302 s⁻¹; in [3], 0.00621 s⁻¹; in [4] it was 0.00395 s⁻¹. Also, the kon in test [1] worked out at 1.66e+06 M⁻¹ s⁻¹; in [2], 1.66e+06 M⁻¹ s⁻¹; in test [3], 1.24e+06 M⁻¹ s⁻¹; in [4], 5.24e+06 M⁻¹ s⁻¹. Moreover, the half-maximal inhibitory concentration (IC50) in [5] came to 3 nM; in [6], 2.1 nM; in test [7] it was 2.6 nM; in test [8], 1.8 nM.

B2: hNGAL wildtype (SEQ ID NO:1) (other)
chain: QDSTSDLIPAPPLSKVPLQQNFQDNQFHGKWYVVGLAGNAILREDKDPQKMYATIYELKEDKSYNVTSVLFRKKKCDYWIRTFVPGSQPGEFTLGNIKSYPGLTSYLVRVVSTNYNQHAMVFFKKVSQNREYFKITLYGRTKELTSELKENFIRFSKSLGLPENHIVFPVPIDQCIDG
notes: also called human lipocalin 2; human Lcn 2
As to B2, the koff came to 0.000159 s⁻¹ in test [9]; 0.00221 s⁻¹ in test [10]; 0.00233 s⁻¹ in test [11]; 0.00234 s⁻¹ in test [12]; 0.00259 s⁻¹ in test [13]; 0.0185 s⁻¹ in test [14]. Also, the koff stood at 0.00414 s⁻¹ in test [15] and 0.00105 s⁻¹ in test [16]. Moreover, the on-rate (kon) in test [9] came to 347000 M⁻¹ s⁻¹; in test [10] it was 1200 M⁻¹ s⁻¹; in [11], 1.62e+06 M⁻¹ s⁻¹; in test [12], 342000 M⁻¹ s⁻¹; in test [13] it was 1640 M⁻¹ s⁻¹; in [15], 1.1e+06 M⁻¹ s⁻¹. Further, the kon in test [16] was 970000 M⁻¹ s⁻¹.

Usually Kd stands for the equilibrium constant for the complex coming apart. Lower therefore signals a tighter complex. One may read the koff as a measure of how fast the partners let go of each other. A higher koff goes with a short-lived complex. The term kon denotes the rate constant with which the complex forms. Low values mean slower complex formation, high ones faster complex formation. Usually IC50 stands for the concentration at which inhibition is half-maximal. Lower therefore signals greater potency in that assay.
